Data taken from PMC6511843.

B1: HA.ELK-1 [not stated] / recombinant core^SRF [not stated] (parent)
chain 1: MDPSVTLWQFLLQLLREQGNGHIISWTSRDGGEFKLVDAEEVARLWGLRKNKTNMNYDKLSRALRYYYDKNIIRKVSGQKFVYKFVSYPEVAGCSTEDCPPQPEVSVTSTMPNVAPAAIHAAPGDTVSGKPGTPKGAGMAGPGGLARSSRNEYMRSGLYSTFTIQSLQPQPPPHPRPAVVLPSAAPAGAAAPPSGSRSTSPSPLEACLEAEEAGLPLQVILTPPEAPNLKSEELNVEPGLGRALPPEVKVEGPKEELEVAGERGFVPETTKAEPEVPPQEGVPARLPAVVMDTAGQAGGHAASSPEISQPQKGRKPRDLELPLSPSLLGGPGPERTPGSGSGSGLQAPGPALTPSLLPTHTLTPVLLTPSSLPPSIHFWSTLSPIAPRSPAKLSFQFPSSGSAQVHIPSISVDGLSTPVVLSPGPQKP
chain 2: SGAKPGKKTRGRVKIKMEFIDNKLRRYTTFSKRKTGIMKKAYELSTLTGTQVLLLVASETGHVYTFATRKLQPMITSETGKALIQTCLNSP

Variants of: B1
Assay: EMSA (ternary complex with coreSRF on radio-labelled SRE probe), densitometry
Conditions: parent: 100, read off a plot

| percent of parent (% of ELK-1 (WT = 100)) | Variant |
| --- | --- |
| 51 | chain 1 MDPSVTLWQFLLQLLREQGNGHIISWTSRDGGEFKLVDAEEVARLWGLRRNRTNMNYDKLSRALRYYYDKNIIRKVSGQKFVYKFVSYPEVAGCSTEDCPPQPEVSVTSTMPNVAPAAIHAAPGDTVSGKPGTPKGAGMAGPGGLARSSRNEYMRSGLYSTFTIQSLQPQPPPHPRPAVVLPSAAPAGAAAPPSGSRSTSPSPLEACLEAEEAGLPLQVILTPPEAPNLKSEELNVEPGLGRALPPEVKVEGPKEELEVAGERGFVPETTKAEPEVPPQEGVPARLPAVVMDTAGQAGGHAASSPEISQPQKGRKPRDLELPLSPSLLGGPGPERTPGSGSGSGLQAPGPALTPSLLPTHTLTPVLLTPSSLPPSIHFWSTLSPIAPRSPAKLSFQFPSSGSAQVHIPSISVDGLSTPVVLSPGPQKP [chain 1 K50R K52R] |
| 11 | chain 1 MDPSVTLWQFLLQLLREQGNGHIISWTSRDGGEFKLVDAEEVARLWGLRKNKTNMNYDRLSRALRYYYDKNIIRKVSGQKFVYKFVSYPEVAGCSTEDCPPQPEVSVTSTMPNVAPAAIHAAPGDTVSGKPGTPKGAGMAGPGGLARSSRNEYMRSGLYSTFTIQSLQPQPPPHPRPAVVLPSAAPAGAAAPPSGSRSTSPSPLEACLEAEEAGLPLQVILTPPEAPNLKSEELNVEPGLGRALPPEVKVEGPKEELEVAGERGFVPETTKAEPEVPPQEGVPARLPAVVMDTAGQAGGHAASSPEISQPQKGRKPRDLELPLSPSLLGGPGPERTPGSGSGSGLQAPGPALTPSLLPTHTLTPVLLTPSSLPPSIHFWSTLSPIAPRSPAKLSFQFPSSGSAQVHIPSISVDGLSTPVVLSPGPQKP [chain 1 K59R] |
